Test results taken from the DeepSol protein solubility set.

Assay: soluble on expression in E. coli; label from the status in PepcDB or PDB records
In the case of “MGSDKIHHHHHHMRPTENGVLHLRKKFVASLLAVAIASTTACAQLGISKEQAGTVIGGLAGVAIGSTMGSGNGKIAAALIAGGIGAYVGNRIGHMLDEKDQQALALRTQEVLSQQQTTASAQPVTWKSDHSGATAQIVPGKEYTKTKQVEVKRAPKIQAVPSMKLINEPYVTISDNLNVRAAPNQAGEKVGSLKNHTEFTAVGSTGDWILVGRKGVTVGYVHKNYVEPKAQAVAKRVTPAVNLDELDVAASKETQGFDLDSVQSLPTQTVAAEAACRPVTVSLKSQSGQTEQEQNTFCKQANGTWELI”, the “soluble on expression in E. coli” value is reported as “not soluble”. In the case of “MGSDKIHHHHHHMRSDLRIAIVANEKRGDGNIELRLQSKGYQVVTLTTPSSVMGFIYSDPPDVILMDLSSPDEAFLGIIRSLKDDFFFSTIPVIGMMPEPAAEFFDWDEYPLDDFVTFPLNFRELFTRIVLSLRRLRRVFDNNPLTRLPGNTSIQRAIEQTVGKPMAVCYVDINHFKQYNDVYGFAHGDEVLRMLGRIMSNAVKDAGDGFAGHIGGDDFVFIVPFDQAEVVAGRIIANFTAVVSELFNEEEKRNGFFLAHDRKGNEEKVPLMGVAIAIVPTDSPKIGHYAKVAEVAAELKTLAKQSHKSCFVVDRRKY”, the “soluble on expression in E. coli” value is reported as “not soluble”. For “MGSDKIHHHHHHMRTLFSQQQWIDMKVLVTGATSGLGRNAVEFLCQKGISVRATGRNEAMGKLLEKMGAEFVPADLTELVSSQAKVMLAGIDTLWHCSSFTSPWGTQQAFDLANVRATRRLGEWAVAWGVRNFIHISSPSLYFDYHHHRDIKEDFRPHRFANEFARSKAASEEVINMLSQANPQTRFTILRPQSLFGPHDKVFIPRLAHMMHHYGSILLPHGGSALVDMTYYENAVHAMWLASQEACDKLPSGRVYNITNGEHRTLRSIVQKLIDELNIDCRIRSVPYPMLDMIARSMERLGRKSAKEPPLTHYGVSKLNFDFTLDITRAQEELGYQPVITLDEGIEKTAAWLRDHGKLPR”, the “soluble on expression in E. coli” value was “not soluble”. In the case of “MGSDKIHHHHHHMRVKYFGTDGIRGIFGETLTDELAFKVGKALGEIVGEGKVIVGKDTRVSGDSLEAAISAGLTSMGVDVLLCGILPTPAVALLTRITRSFGVVISASHNPPEYNGIKVLKGGYKIPDEMEAEIEKRLENGSFLTRSVVGRTKSFREGRDMYIGAVLEMFRDLDLTGEMVSLDLANGATTTTAREVFEFLGAKVEVFNDSQDGLLINQGCGATHPRFLAEEMKNGKVGFTFDGDGDRVIAVDEERNVVNGDRIIGILAVGLKEEGRLNSDTVVGTVMTNGGLEDFLKEKGIRLLRTKVGDKYVLEKMLESGANLGGERSGHIIILDRSTTGDGLITALELMRVLKRSGRKLSDFAKEIPDYPQITKNVRRTERMSLENENLRKIVEESTSRGYRVVIRPSGTEPVIRITVEGKDREEIEKIVEEISRVLES”, the “soluble on expression in E. coli” value is reported as “not soluble”. In the case of “MGSDKIHHHHHHMRVYFDNNATTRVDDRVLEEMIVFYREKYGNPNSAHGMGIEANLHMEKAREKVAKVLGVSPSEIFFTSCATESINWILKTVAETFEKRKRTIITTPIEHKAVLETMKYLSMKGFKVKYVPVDSRGVVKLEELEKLVDEDTFLVSIMAANNEVGTIQPVEDVTRIVKKKNKETLVHVDAVQTIGKIPFSLEKLEVDYASFSAHKFHGPKGVGITYIRKGVPIRPLIHGGGQERGLRSGTQNVPGIVGAARAMEIAVEELSEAAKHMEKLRSKLVSGLMNLGAHIITPLEISLPNTLSVSFPNIRGSTLQNLLSGYGIYVSTSSACTSKDERLSHVLDAMGVDRRIAQGAIRISLCKYNTEEEVDYFLKKIEEILSFLDLTGNNRR”, the “soluble on expression in E. coli” value is reported as “not soluble”. With “MGSDKIHHHHHHMSAFSVEKIGLQDSQQFSKLFIDYLAQQEHIQPLYTFYPDMAGLETAIEKRSKQPINRTVLVERLKAQYKDLPVSEKVQQNIERLASEHTFTITTGHQLCLGTGPLYLILKTLSCVKLCEALKTKHADNEFVPVFWMASEDHDAAEINHFYVFGKKYTWETTQTGAVGRFTTTGISEVLETIKDIPAWLKDAYQSSVTLAEATRKVMHQLFAEYGVVVIDGDDAALKKEFTAVIEKELFEQPAVAVMNQTNRSIERHGYSIQVNPRDINLFYVKDSLRERIEKQGERFVVLHTDVSFSAGEIKKEVADHPERFSPNVVLRPLYESTILPDIAYVGGPGEIAYWLQLKEVFAVYNTFLPAIFPRMFSGVITKQQCVKLEKAHVTVAELFLSEFDLKQVVVSRSIQEEISIEAEAGKITAAFDTIASIAATVDGSLQSWAQAEKAKALKQLEDIEKKLRKAEERKHDDVIKSVLGIRDKILPNGKLQERQESVFTFLVNDAQLIEKLYQSLDPCTFNIQMCCYE” the “soluble on expression in E. coli” value was “not soluble”. For “MGSDKIHHHHHHMSAFYDLYETPDPNDTGEKQPLHARIVPSGTYSKKDFIERVSRHQPFPHNIIEGVLGAVVDELAEALADGYIVELGELGHFSISLKCTHKVMTKKEIRAESIRFDNVHLRTSKEFKKKIKREIELERVENSNEKTHNAKISIEDRLQMLQEFLKKNGGITRIEYSRLTGLPRLKAIDDLNTFIKEGTLRKRGAGRTVFYVWKQKE”, the “soluble on expression in E. coli” value was “not soluble”. For “MGSDKIHHHHHHMSAQVQDLTPIKGVTYYYPPHDAVLVFKDGAAEIPYGGLPVPLLEEDYASLDGEPSYDAVGRGVYQTLRTNPDCIHCAAYATLLRDAYPHYLAELASHAIMLDSKDVEVPYIDRKIVSLKVLSLLEPDNAGLPLEIGRAYLDRGLRLSALHMSTVSIYRAEHFLRRALELTPEDGRALRLLGEVCYLLGKYEEAASCWLDTLDLADADEAERFRVRLARISEGRLPLIAPVDYLEAIGAAFTCFHTGDYEEAVAILQDVLMDGIFCAEFPIADIHCVIGKSFVQLDMPRYAEESFRAALQLDPAHEESLACLRKVTGEE”, the “soluble on expression in E. coli” value was “not soluble”. With “MGSDKIHHHHHHMSDIVIKAENLGKKYIIGHQAENGRYQALRDVLMHNAQTLWNKTKDLAKGNPLIHGDTLEEVWALKDVSFEIRRGEAVGIIGRNGAGKSTLLKILSRITDPSAGRVTIDGRVASLLEVGTGFHPELSGRENIYLNGTILGMSRKEINQKFDEIVDFAGIEKYLDTPVKRYSSGMYVRLAFAVAAHLEPEILVVDEVLAVGDAEFQKKCLGKMGDVTKEGRTVLFVSHNMVALSALCFRSINLDSGKIIYNGHVDTGVLIYMNGLSNIDNPISYKTRSATGTGEMKIINSFLLRNGKPTLSNVACGDKVDICIEFECCTEKPRFHFALDIYNSKGNRIAYCNSLYTMGVSWVQLPKIFLAKCSFPKLPFFPDEYRVDISIHCNDERADYLQGALSLKVYEGDFYGSGKIPPISGASPIMLLEHKWTIDN” the “soluble on expression in E. coli” value was “not soluble”. With “MGSDKIHHHHHHMSDKTNLSHNVVNKEEFAGDPKPHPAAYTLVREDKGLGSTPKLPLETSYVKGLLKHDKFFQKALSNPIVAREFFEEYLPTEIKALFSPTTLTLENDSFIDPNLKESITDVLYSARINNRDCYIYILCEHQSSSDPHMAFRLFKYMLNIAEKHLISHPDSKKFPFIYPLVYSNDHKKYTAPLNLWDLFENSELVKDTWSNNYQLISLRDISDDKLKENPWLAPLQILMKYIHKPNVFDKWQEISGCLATIAASSSGIEYIKSALSYSLTKI” the “soluble on expression in E. coli” value was “not soluble”. With “MGSDKIHHHHHHMSDLINIQKKLLPDVLMIMQKRYQILRSIYFSEPVGRRTLAGMLGMSERVLRGEVEFLKAQGLVEIASSGMTVTKEGLVVFRDLESVMNQLSGLHSMEEQLAKKLQIKKCLVVQGDSDDTPWVREEMGRVAVEQLDMALTEKRNIVAVMGGSTMATVAEMMTTDFAKGRELLFVPGRGGIGEDLDNQANTICDKMATKTNTKHRVLYVPEQLGEEAYRSLLKEPAIQEGLRLVQSANAIILGIGDALAMAKRRHTGEDVLEKIIHRKAVGEAFGYYFDEQGEVVHKVPTFGLQFEDLAQIPHIIAVAGGTSKAKAIKSYMKSAPKNTILITDEGAAKSLLKGSNTLLK” the “soluble on expression in E. coli” value was “not soluble”. For “MGSDKIHHHHHHMSDNDLQRRILDAVDAGFDAQLATTRDFVAIPSTRGAEGPCQDMIGDLLRQRGYEVDDWHIDLDDLKDLRGYGPIEHDFSKARTVVGTYRPSTNAGRSLILQGHCDVVPAGPLEMWDTPPFSPVIKQGRMYGRGACDMKSGTIGALYALDAIKAAGLRPTGRIHFQSVIEEESTGVGALSTLQRGYRADACFIPEPTGGKMVRSQVGVIWFRLKVRGYPVHVATAGTGSNAITAAYHLIDALGKLEEEWNRRAASDPHFKTLAHPINFNPGIIKGGDWASSVPAWCDVDCRIAILPGWSVADHQAEILACVSAAARDHRFLSNNPPQVEWSGFLSEGYELKNAAEPEAAFGKAYQAVYGSEVEDLVFTALTDTRFYGLNYNIPSLCFGASGEAMHGFNEYIDLESLRQSTKATALFIAEWCGVEPA”, the “soluble on expression in E. coli” value was “not soluble”. In the case of “MGSDKIHHHHHHMSDNEIVAGIMRDHIINLLKEGKRIDDRGFEDYRPIEIEVGIIEKAEGSALVKLGSTQVLVGIKTTLGEPFPDTPNMGVMTTNVELVPLASPTFEPGPPDERAIELARVTDRGIRESRALNLEKMVIVPGKIVRVVFIDVHVLDHDGNLMDAIGIASIAALLNAKVPKVEYNEETGEVEILEEKEPLPVERIPIPVTFAKIGNILVVDPSLEEELVMDGRLTVTTDETGHISAVQKGEGGAFKLEEVMYAVETAFKKAEEIRKIVLEAIKKSGE”, the “soluble on expression in E. coli” value is reported as “not soluble”. In the case of “MGSDKIHHHHHHMSDTLLEIDNLTVDFQLPTGTVSAVKHVSFSLQPGETLALVGESGSGKSVSSTAAMRLLPELARTSGAIRFKGEDLLRATPRRMRHIRGNAISMIFQEPMTSLNPLHRIGRQIAEVLEKHRGLKGRQARTKIVELLEQVGIPDPARRIDSYPHELSGGQRQRVMIAMALACEPELLIADEPTTALDVTVQAQILALLKDLQARYGMAILFITHDLGIVRHFADRVCVMRRGELIESGPTAELFDTPRDDYTRMLIDADPRGRKTPVDPSMPVLFEAKDLQVRFTLKKRLFRASEHFEAVRGIDLTIRRGQTVGIVGESGSGKSTLGRALLRLLDSRGEIRFDGQDIAALDTAGMRPLRSRLQVVFQDPFGSLSPRMTVGEVISEGLRVHHPTLDRRQREARVIEALEDVALDPAMRNRYPHEFSGGQRQRIAIARALVLKPEFLLLDEPTSALDRSVQVTVIDLLRDLQQKHGLTYLFISHDLSVVRALADTVLVMKAGQVVEQGATEEIFANPREHYTRELMRAAFVDAA”, the “soluble on expression in E. coli” value is reported as “not soluble”. In the case of “MGSDKIHHHHHHMSEFYGAQHRQWQEHFDGVAMADRVRELIVLPSIPEEHAGFIGSRDFFFLSTIDHRGFPTCSYKGGQPGFVKILDDTTLAFPSLDGNSMYLSMGNLSLNPKIGMLFIDFETPHRIRVHGTASVKPDDTLLAEYQEAELIVRIKIEEIFVNCPRYIHKHQRVQHSPYVPQAGCTTRTPQWKRLDSVQDVLRQPDLEKVSRMGGPITIEEYMELVLQGDA”, the “soluble on expression in E. coli” value is reported as “not soluble”. For “MGSDKIHHHHHHMSEKKILILCQYFYPEYVSSATLPTQLAEDLIANHINVDVMCGWPYEYSNHKQVSKTEMHRGIRIRRLKYSRFNNKSKVGRIINFFSLFSKFVINIPKMLKYDQILVYSNPPILPLIPDVLHRLLKKKYSFVVYDIAPDNAIKTGATRPGSMIDKLMRYINRHVYKNAENVIVLGTEMKNYLLNHQISKNADNIHVIPNWYDMRQLQDNRIYNDTFKAYREQYDKILLYSGNMGQLQDMETLISFLKLNKDQPQTLTILCGHGKKFADVKTAIEDHRIENVKMFEFLTGTDYADVLKIADVCIASLIKEGVGLGVPSKNYGYLAAKKPLVLIMDKQSDIVQHVEQYDAGIQIDNGDAHAIYNFINTHSSKELHEMGERAHQLFKDKYTREINTMKYYNLLK”, the “soluble on expression in E. coli” value was “not soluble”. In the case of “MGSDKIHHHHHHMSEKKKVLMLHGFVQSDKIFSAKTGGLRKNLKKLGYDLYYPCAPHSIDKKALFQSESEKGRDAAKEFNTSATSDEVYGWFFRNPESFNSFQIDQKVFNYLRNYVLENGPFDGVIGFSQGAGLGGYLVTDFNRILNLTDEQQPALKFFISFSGFKLEDQSYQKEYHRIIQVPSLHVRGELDEVVAESRIMALYESWPDNKRTLLVHPGAHFVPNSKPFVSQVCNWIQGITSKEGQEHNAQPEVDRKQFDKPQLEDDLLDMIDSLGKL”, the “soluble on expression in E. coli” value is reported as “not soluble”.
